From article doi:10.1101/2020.02.18.953711 (bioRxiv, 2020)

Molecular target: T1, CEPR2^KD-His (Arabidopsis thaliana, UniProt Q9C7T7 642-977)
T1 sequence (looked up): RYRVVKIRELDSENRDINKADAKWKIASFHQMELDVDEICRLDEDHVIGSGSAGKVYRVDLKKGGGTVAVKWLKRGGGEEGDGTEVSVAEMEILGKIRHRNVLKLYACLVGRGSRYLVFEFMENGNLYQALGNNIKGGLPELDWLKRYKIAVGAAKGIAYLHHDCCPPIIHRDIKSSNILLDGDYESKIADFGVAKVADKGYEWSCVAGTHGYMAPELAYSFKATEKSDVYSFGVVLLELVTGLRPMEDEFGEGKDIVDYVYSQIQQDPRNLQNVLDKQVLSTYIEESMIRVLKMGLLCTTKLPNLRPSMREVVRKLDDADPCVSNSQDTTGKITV
Test: pull-down

B1: NRT1.2^loop-GST (domain or fragment, Arabidopsis thaliana, UniProt Q8H157 232-346, looked up)
chain: SGSRFYRNKIPCGSPLTTILKVLLAASVKCCSSGSSSNAVASMSVSPSNHCVSKGKKEVESQGELEKPRQEEALPPRAQLTNSLKVLNGAADEKPVHRLLECTVQQVEDVKIVLK
B1: binds.
